Changes are numbered by the printed parent chain. Names may count otherwise.
What was measured:
human CD39 mutant 5 = biological target: T1, human CD39 mutant 5 (human, UniProt P49961 1-510); assay: flow cytometry on Hek-293T cells expressing CD39 mutant 5 (panel M5); unstained (US) median 8,98; antibody concentration not shown
T1 construct: Expressed on Hek-293T cells; also called M5
T1 chain: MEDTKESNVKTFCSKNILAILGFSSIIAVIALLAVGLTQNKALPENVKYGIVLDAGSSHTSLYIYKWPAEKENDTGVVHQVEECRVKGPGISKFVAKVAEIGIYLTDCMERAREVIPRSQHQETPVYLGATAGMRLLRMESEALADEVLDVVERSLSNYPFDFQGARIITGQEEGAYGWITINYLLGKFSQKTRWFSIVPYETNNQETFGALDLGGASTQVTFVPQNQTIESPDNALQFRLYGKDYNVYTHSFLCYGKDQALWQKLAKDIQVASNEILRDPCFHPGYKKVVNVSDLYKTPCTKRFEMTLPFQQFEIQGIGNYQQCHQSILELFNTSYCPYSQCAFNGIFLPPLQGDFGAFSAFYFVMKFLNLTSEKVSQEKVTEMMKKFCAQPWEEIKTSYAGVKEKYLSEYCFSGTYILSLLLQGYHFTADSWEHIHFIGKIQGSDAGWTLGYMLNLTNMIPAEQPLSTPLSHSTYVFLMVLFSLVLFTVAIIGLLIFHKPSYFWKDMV
Description: (§1) Mutants were transfected in Hek-293T cells, as shown in the table 1, using numbering of SEQ ID NO: 1. […] Mutant 19 includes substitutions at residues R138, M139 and E142.
(§2) In order to define the epitopes of the further anti-CD39 antibodies of Example 5, they were tested for loss of binding to the panel of CD39 mutants as described in Example 1 and Table 1. Mutants were transfected in Hek-293T cells, as shown in the table 1, using numbering of SEQ ID NO: 1.Dose-ranges of test antibodies (10-2.5-0.625-0.1563-0.0391-0.0098-0.0024-0.0006 μg/ml) are tested on the 20 generated mutants by flow cytometry.

human CD39 mutant 15 = biological target: T2, human CD39 mutant 15 (human, UniProt P49961 1-510); assay: flow cytometry on Hek-293T cells expressing CD39 mutant 15 (panel M15); unstained (US) median 8,98; antibody concentration not shown
T2 construct: Expressed on Hek-293T cells; also called M15
T2 chain: T1 chain with K87A, A96Q, A99N, E100A, D107A, A143E, E147R
Description: as §1, §2

[1] = biological target: T3, recombinant human CD39-L4 (NTPDase5, ENTPD5) (human, UniProt O75356 25-428); assay: ELISA on plate-coated recombinant huCD39 L4; the single curve has no legend on the sheet, I-394 by the legend paragraph 70
T3 construct: Genbank NP_001240 (precursor) is printed
T3 sequence: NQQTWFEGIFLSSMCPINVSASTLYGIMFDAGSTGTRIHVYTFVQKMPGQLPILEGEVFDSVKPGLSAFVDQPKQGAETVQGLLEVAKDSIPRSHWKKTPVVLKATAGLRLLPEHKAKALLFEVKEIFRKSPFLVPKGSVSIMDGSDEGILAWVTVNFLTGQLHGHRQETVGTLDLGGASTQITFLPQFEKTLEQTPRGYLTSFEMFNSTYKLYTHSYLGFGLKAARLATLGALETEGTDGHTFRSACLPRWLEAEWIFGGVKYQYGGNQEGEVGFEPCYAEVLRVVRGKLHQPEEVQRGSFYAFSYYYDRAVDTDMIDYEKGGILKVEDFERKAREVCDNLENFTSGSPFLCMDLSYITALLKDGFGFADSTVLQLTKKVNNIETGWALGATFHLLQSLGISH
Description: (§3) Wells were washed in TBS Tween 20, and further saturated 2H at RT in TBS Blocking buffer. Dose range concentration of primary antibody was incubated in TBS blocking buffer for 2 h at RT. Wells were washed in TBS Tween 20. […] Optical density was measured on Enspire™ at OD=450.

[2] = biological target: T4, recombinant human CD39-L3 (NTPDase3, ENTPD3) (human, UniProt O75355 44-485, limits assumed); assay: ELISA on plate-coated recombinant huCD39 L3; the single curve has no legend on the sheet, I-394 by the legend paragraph 70
T4 construct: Genbank NP_001239 is printed
T4 sequence: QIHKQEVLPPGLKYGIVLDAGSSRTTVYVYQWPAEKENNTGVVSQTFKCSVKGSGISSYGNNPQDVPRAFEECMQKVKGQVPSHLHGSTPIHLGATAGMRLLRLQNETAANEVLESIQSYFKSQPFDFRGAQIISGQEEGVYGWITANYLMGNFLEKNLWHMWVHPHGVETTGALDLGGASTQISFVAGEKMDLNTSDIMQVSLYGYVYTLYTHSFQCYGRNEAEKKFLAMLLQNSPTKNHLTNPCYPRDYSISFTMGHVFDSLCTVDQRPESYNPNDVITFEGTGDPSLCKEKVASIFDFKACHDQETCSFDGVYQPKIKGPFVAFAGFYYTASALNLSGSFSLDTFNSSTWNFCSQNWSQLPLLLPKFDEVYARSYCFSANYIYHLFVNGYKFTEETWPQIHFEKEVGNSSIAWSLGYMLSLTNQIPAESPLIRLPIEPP
Description: as §3

Median : Comp-Alexa Fluor 647-A (human CD39 mutant 5): 1470 | Median : Comp-Alexa Fluor 647-A (human CD39 mutant 15): 6360 | binding result [1]: no binding (tested: about 50 µg/ml) | binding result [2]: no binding (tested: about 50 µg/ml)
B1: antibody I-394 (antibody, V domains shown)
VH: EVQLQQSGPELVKPGASVKMSCKASGYTFTDYNMHWVKQSHGRTLEWIGYIVPLNGGSTFNQKFKGRATLTVNTSSRTAYMELRSLTSEDSAAYYCARGGTRFAYWGQGTLVTVSA
VL: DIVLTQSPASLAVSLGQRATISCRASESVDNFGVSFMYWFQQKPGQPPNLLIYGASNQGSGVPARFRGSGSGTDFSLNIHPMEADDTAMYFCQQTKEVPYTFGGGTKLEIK
notes: Mouse variable regions; Produced in CHO with human IgG1 constant domains carrying L234A/L235E/G237A/A330S/P331S (Kabat EU numbering) and a human Ck constant domain

Reference: US20190389961A1 (INNATE PHARMA, published 2019)
